Molecular target: HIV Env on CEM-Env cells (HIV, strain not stated)

Q: How did the IFNγ in the culture of CEM-Env + CD4-dTc turn out when “CD4-CD28-CD3ζ chimeric receptor (from UniProt P01730 26-396)” was run?
A: Its IFNγ in the culture of CEM-Env + CD4-dTc is 838 pg/mL.

Q: What about the IL2 in the culture of CEM-Env + CD4-dTc of the same substance?
A: The IL2 in the culture of CEM-Env + CD4-dTc was 318 pg/mL.

Q: What about the TNFα in the culture of CEM-Env + CD4-dTc of the same substance?
A: Its TNFα in the culture of CEM-Env + CD4-dTc is 249 pg/mL.
